From US20130122545A1 come the findings set out here.

Data set [1] concerns the target Aspergillus niger 19 kDa protease (Aspergillus niger). Put plainly: cell-based or functional assay.
A further data set concerns the target T1, Suc(OMe)-AAPV-MCA.
T1 chain: AAPV

For a further data set, the target named is T2, Suc-LLVY-MCA.
T2 chain: LLVY

In another data set the target is T3, Boc-FSR-MCA.
T3 chain: FSR

The target of another data set is T4, Z-LLE-MCA.
T4 chain: LLE

In another data set the target is T5, Glt-AAF-MCA.
T5 chain: AAF

For pepstatin A (peptide), the residual activity (%) in data set [1] amounted to 91%.

As to leupeptin (peptide), the residual activity (%) in data set [1] turned out to be 89%.

B1: Aspergillus niger 19 kDa protease (protein)
chain: SPIPSYSRPGRGQHFQDAYGFAEACIAGDRMEIAGQTGMSPTSTEVPPTLEEEVAQAFNNINEVILYTLEKAKPDLRASVKSGWDRVVKIRTYHVQLPQTREKIIGLMVENVKKWCPDHQPTWTMLGIEALPFEGQNLEIEVDVFLG
For the molecule B1, the “substrate specificity: increase of fluorescent strength, relative (column has no head)” value with Suc(OMe)-AAPV-MCA stood at 0.2%; in the data set with Suc-LLVY-MCA, 100.0%; in the data set with Boc-FSR-MCA it was 0.3%; with Z-LLE-MCA, 0.1%; in the data set with Glt-AAF-MCA it was 1.6%.
